The results in this text go back to patent US8415106B2, “Cell-based screen for agents useful for reducing neuronal demyelination or promoting neuronal remyelination” (Myelin Repair Foundation, Inc., priority 2005, dated 2013).

The subject of experiment [1] is oligodendrocytes and myelin in the corpus callosum. As to the kind of experiment: Cuprizone-induced demyelination/remyelination in GFAP/tTA; TRE/IFN-γ double transgenic mice. It counts as in vivo. How it is done:
The effects of IFN-γ on demyelination were evaluated in a cuprizone animal model using transgenic mice that allow for temporally regulated delivery of IFN-γ using the tetracycline controllable system (Lin, et al. (2004) J. Neurosci. 24: 10074-10083). The transgenic mice were generated by mating line 110 GFAP/tTA mice on the C57BL/6 background with line 184 TRE/IFN-γ on the C57BL/6 background to produce GFAP/tTA; TRE/IFN-γ double transgenic mice (Lin, et al. (2004) J. Neurosci. 24: 10074-10083). Transcriptional activation of the TRE/IFN-γ transgene by tTA was repressed in the control (DOX+) mice by adding 0.05 mg/ml doxycycline to the drinking water which was provided ad libitum from the day of conception. The DOX+ double transgenic mice were GFAP/tTA; TRE/IFN-γdouble transgenic animals fed cuprizone chow and never released from the doxycycline solution. DOX− double transgenic mice were GFAP/tTA; TRE/IFN-γdouble transgenic animals fed cuprizone chow and released from doxycycline to induce expression of IFN-γ.
Demyelination was induced in 6-week-old DOX+ and DOX− male mice by feeding the mice a diet of milled mouse chow containing 0.2% cuprizone (Sigma-Aldrich, St. Louis, Mo.) for up to 6 weeks. Subsequently, both groups of mice were returned to a normal diet for up to 3 weeks to allow remyelination to occur. All animal procedures were conducted in complete compliance with the NIH Guide for the Care and Use of Laboratory Animals and were approved by the Institutional Animal Care and Use Committee of The University of Chicago.
The effect of INF-γ on the population of oligodendrocytes was evaluated by immunohistochemical analysis of oligodendrocytes using an anti-CC1 antibody (APC7, 1:50; EMD Biosciences, Inc., La Jolla, Calif.) Immunohistochemistry was performed on brain sections obtained from mice that were first anesthetized mice and perfused through the left cardiac ventricle with 4% paraformaldehyde in 0.1M PBS. The brains were removed, postfixed with paraformaldehyde, cryopreserved in 30% sucrose, embedded in OCT and frozen on dry ice. Frozen sections were cut in a cryostat at a thickness of 10 μm. […] Fluorescent stained sections were mounted with Vectashield mounting medium with DAPI (Vector Laboratories) and visualized with a Zeiss Axioplan fluorescence microscope. […] Immunopositive cells were quantified by counting positive cells within the median of the corpus callosum, confined to an area of 0.04 mm^2. Only those cells with nuclei observable by DAPI staining were counted. Each MBP immunostaining slide was scored on a scale of zero to four. […]

Experiment [2] has as its system myelin basic protein (MBP). As to the kind of experiment: Hippocampal organotypic cultures (HOC), in vitro model of myelination, MBP Western blot. The settings on record: 100 U/ml IFN-γ, 7 days, HOCs. It counts as cell-based. Here is the method:
HOCs, were prepared and maintained as described previously (Kunkler and Kraig (1997) J Cereb Blood Flow Metab. 17:26-43), and were maintained in vitro for 7 days before use. SAL at various concentrations was combined with 100 U/ml IFN-γ and added to the HOC cultures for 7 days. […] After 7 days of 100 U/ml IFN-γ exposure, the levels of MBP decreased approximately 80% in the HOCs (FIG. 29).
(In western blotting, separated proteins are transferred to a membrane and probed.)

Experiment [3] relates to ER stress markers (BIP, CHOP, caspase-12). As to the kind of experiment: ER stress markers in the CNS of 14-day-old mice ectopically expressing IFN-γ (released from doxycycline at E14). It counts as in vivo. The settings on record: PND 14, DOX− from E14. The source says:
To study the effect of INF-γ on the myelination of oligodendrocytes during mouse development, transgenic mice that allow for temporally regulated delivery of IFN-γ to the CNS using the tetracycline (tet) controllable system (Lin, et al. (2004) J. Neurosci. 24: 10074-10083) were generated. To drive tTA expression in astrocytes, the transcriptional regulatory region of the glial fibrillary acidic protein (GFAP) gene was chosen (Brenner, et al. (1994) J. Neurosci. 14: 1030-1037). GFAP/tTA mice were mated with TRE/IFN-γ mice to produce animals hemizygous for both transgenes. When these mice are maintained on doxycycline (DOX+), expression of the IFN-γ transgene is repressed (FIG. 10A); when the double transgenic mice are released from doxycycline (DOX−) INF-γ is expressed. For the purpose of these experiments, mice received doxycycline up to day 14 of development (E14), at which time the experimental animals (DOX−) stopped receiving doxycycline, while the control animals (DOX+) were continuously fed the dug. The mRNA for IFN-γ could be detected in the DOX− mice as early as 10 days after birth (data not shown).
Real time PCR analysis was performed to determine the levels of expression of INF-γ, MHC-1, BIP, CHOP, and caspase 12. The primers for the PCR reactions for BIP, CHP and caspase 12 are given in example 1. The sense and antisense primers for INF-γ were […] (SEQ ID NO: 39) and […] (SEQ ID NO: 40), respectively; and the sense and antisense primers for MHC-1 were MHC-I sense primer: ATTCCCCAAAGGCCCATGT (SEQ ID NO: 1); and MHC-I antisense primer: […] (SEQ ID NO: 2).
Western blot analysis was performed on the CNS of 14 day old mice to determine the expression of caspase-12 as described in Example 6.

B1: IFN-γ: pleotropic cytokine secreted by activated T lymphocytes and natural killer cells; recombinant rat IFN-γ added to cultures or transgenically expressed in mouse CNS (protein, UniProt P01581 23-156, looked up)
Interferon gamma: QGTLIESLESLKNYFNSSSMDAMEGKSLLLDIWRNWQKDGNTKILESQIISFYLRLFEVLKDNQAISNNISVIESHLITNFFSNSKAKKDAFMSIAKFEVNNPQIQHKAVNELIRVIHQLSPESSLRKRKRSRC
In the case of B1, the remyelinated axons in experiment [1] (DOX− mice (IFN-γ expressed), corpus callosum, week 8, control DOX+ 48.4%±4%) is 26.9%±7%. Besides, the “CC1 positive oligodendrocytes within the corpus callosum” value in experiment [1] (DOX− mice, 8 weeks, control DOX+ 228.7±20.2) is listed as 78±12.7 /0.04 mm2. Further, in experiment [1] (DOX− mice, week 4 of cuprizone treatment, DOX+ 19±2.12), the “NG2 positive OPCs in the corpus callosum” value is reported as 46±4.24 /0.04 mm^2. The “NG2 positive OPCs in the corpus callosum” value in experiment [1] (DOX− mice, week 6, DOX+ 80±2.8) is recorded as 31.5±0.71 /0.04 mm^2. In addition, the “decrease of MBP levels” value in experiment [2] is reported as “approximately 80%”. In experiment [3], the BIP expression entry is reported as “approximately 1.6 times the control levels”, the CHOP expression is listed as about 2 times the control levels and the caspase-12 expression result was “strongly enhanced”.
